Columns and labels:
[1] = system: GST:Gli1
[2] = biological target: GST:Gli1 fragment, zinc finger DNA binding region (UniProt P08151)
Sequence of GST:Gli1 fragment, zinc finger DNA binding region (P08151 235-387): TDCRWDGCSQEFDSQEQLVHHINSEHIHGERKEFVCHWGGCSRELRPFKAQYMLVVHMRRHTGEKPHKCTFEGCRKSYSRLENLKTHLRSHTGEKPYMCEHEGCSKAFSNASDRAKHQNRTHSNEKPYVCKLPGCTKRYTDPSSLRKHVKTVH

Sequence of GST:Gli1 (P08151 whole entry, the tested form may be a part): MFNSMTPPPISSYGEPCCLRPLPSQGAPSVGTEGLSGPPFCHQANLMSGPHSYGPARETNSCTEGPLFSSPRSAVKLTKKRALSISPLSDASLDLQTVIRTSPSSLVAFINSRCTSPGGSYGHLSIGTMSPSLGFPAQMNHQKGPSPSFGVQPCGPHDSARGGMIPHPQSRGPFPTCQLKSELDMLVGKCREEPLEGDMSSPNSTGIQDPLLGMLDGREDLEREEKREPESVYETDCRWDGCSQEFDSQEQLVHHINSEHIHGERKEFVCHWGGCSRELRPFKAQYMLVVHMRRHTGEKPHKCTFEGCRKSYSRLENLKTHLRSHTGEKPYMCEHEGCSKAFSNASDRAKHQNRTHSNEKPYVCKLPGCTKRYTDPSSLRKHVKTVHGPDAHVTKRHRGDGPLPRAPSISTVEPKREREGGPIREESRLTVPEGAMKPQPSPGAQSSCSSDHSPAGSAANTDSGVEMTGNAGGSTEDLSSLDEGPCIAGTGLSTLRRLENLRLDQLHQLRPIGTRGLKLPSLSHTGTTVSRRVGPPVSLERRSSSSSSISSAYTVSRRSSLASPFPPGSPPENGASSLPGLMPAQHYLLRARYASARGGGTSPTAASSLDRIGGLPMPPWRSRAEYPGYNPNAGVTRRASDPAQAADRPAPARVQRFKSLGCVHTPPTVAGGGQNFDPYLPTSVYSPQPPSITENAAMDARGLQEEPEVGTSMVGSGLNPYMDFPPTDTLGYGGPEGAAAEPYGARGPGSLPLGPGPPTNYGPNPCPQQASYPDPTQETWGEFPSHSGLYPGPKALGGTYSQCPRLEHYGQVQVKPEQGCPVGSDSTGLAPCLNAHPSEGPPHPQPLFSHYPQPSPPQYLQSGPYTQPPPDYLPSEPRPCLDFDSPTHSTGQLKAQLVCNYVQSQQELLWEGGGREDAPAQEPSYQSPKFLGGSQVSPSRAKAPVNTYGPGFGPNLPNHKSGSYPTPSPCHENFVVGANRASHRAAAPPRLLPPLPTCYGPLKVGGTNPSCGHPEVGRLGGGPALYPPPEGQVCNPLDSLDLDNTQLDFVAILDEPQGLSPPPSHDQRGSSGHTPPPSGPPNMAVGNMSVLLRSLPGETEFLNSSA

B1: recombinant HIS:aPKC (enzyme, UniProt P41743 2-596, looked up, species assumed)
Protein kinase C iota type: PTQRDSSTMSHTVAGGGSGDHSHQVRVKAYYRGDIMITHFEPSISFEGLCNEVRDMCSFDNEQLFTMKWIDEEGDPCTVSSQLELEEAFRLYELNKDSELLIHVFPCVPERPGMPCPGEDKSIYRRGARRWRKLYCANGHTFQAKRFNRRAHCAICTDRIWGLGRQGYKCINCKLLVHKKCHKLVTIECGRHSLPQEPVMPMDQSSMHSDHAQTVIPYNPSSHESLDQVGEEKEAMNTRESGKASSSLGLQDFDLLRVIGRGSYAKVLLVRLKKTDRIYAMKVVKKELVNDDEDIDWVQTEKHVFEQASNHPFLVGLHSCFQTESRLFFVIEYVNGGDLMFHMQRQRKLPEEHARFYSAEISLALNYLHERGIIYRDLKLDNVLLDSEGHIKLTDYGMCKEGLRPGDTTSTFCGTPNYIAPEILRGEDYGFSVDWWALGVLMFEMMAGRSPFDIVGSSDNPDQNTEDYLFQVILEKQIRIPRSLSVKAASVLKSFLNKDPKERLGCHPQTGFADIQGHPFFRNVDWDMMEQKQVVPPFKPNISGEFGLDNFDSQFTNEPVQLTPDDDDIVRKIDQSEFEGFEYINPLLMSAEECV
modifications: His tag
in vitro kinase reaction ([g-32P]ATP, SDS-PAGE, phosphor screen) [1]: aPKC phosphorylates Gli1 (FIG. 3i) | in vitro kinase reaction [2]: aPKC phosphorylates recombinantly expressed human Gli1 DNA-binding domain | in vitro kinase reaction ([g-32P]ATP, SDS-PAGE, phosphor screen) [2]: with the majority of the phosphorylation occurring in the zinc finger DNA binding region of Gli1
